Results from the nanobody polyreactivity screen of Harvey et al. (2022).

Experiment: yeast display, Sf9 membrane polyspecificity reagent, FACS + sequencing; frameworks hold sequencing errors
Method in brief: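 Galactose-induced (36–48 hours) yeast carrying a synthetic nanobody display library were exposed to 10% biotinylated, detergent-solubilized Sf9 membrane reagent at 4 °C for 1 hour. FACS followed streptavidin microbead enrichment, using low and high (top ~1%) gates for expression (anti-HA) and reagent binding (streptavidin). Colony PCR, MiSeq 2 × 250 sequencing and CDR-length filtering followed. Labels for polyreactivity reflect the gate of origin.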

## QVQLVESGGGLVQAGGSLRLSCAASGIIIAWYAMGWYRQAPGKERELVAAITSGGGSTYYADSVKGRFTISRDNAKNTVYLQMNSLKPEDTAVYYCAADYQTIGWGYDYWGQGTQVTVSS
  polyreactivity (PSR sort gate): low polyreactivity

## QVQLVESGGGLVQAGGSLRLSCAASGIIIDYYTMGWYRQAPGKERELVAAINKSGGSTYADSVKGRFTISRDNAKNTVYLQMNSLKPEDNAVYYCAAEVDYSYWPEYARKYYYWGQGTQVTVSS
  polyreactivity (PSR sort gate): low polyreactivity

## QVQLVESGGGLVQAGGSLRLSCAASGIIIGLYGRGWYRQAPGKERELVAAISSSGGSTYYADSVKGRFTISRDNAKNTVYLQINSLKPEDTAVYYCARVVRSLWGGLYLYDYWGQGTQVTVSS
  polyreactivity (PSR sort gate): low polyreactivity

## QVQLVESGGGLVQAGGSLRLSCAASGIIIHSYTMGWYRPAPGKERELVAAISTSGSTYYADSVKGRFTISRDNAKNTVYLQMHILKPEDTAVYYCNADYAQSGTNSQVGKYGYWGQGTQVTVSS
  polyreactivity (PSR sort gate): high polyreactivity

## QVQLVESGGGLVQAGGSLRLSCAASGIIIRKYAMGWYRQAPGKERELVAAITTRGSRTYYADSVKGRFTISRDNAKNTVYLQMNSLKPEDTAVYYCAADRYTVRMDYWGQGTQVTVSS
  polyreactivity (PSR sort gate): high polyreactivity

## QVQLVESGGGLVQAGGSLRLSCAASGIIIRRYAMGWSRQAPGKERELVAAISWSGGSTYYADSVKGRFTISRDNAKNTVDLQMNSLKPEDTAVYYCAAAAYTRDEYDYWGQGTQVTVSS
  polyreactivity (PSR sort gate): high polyreactivity

## QVQLVESGGGLVQAGGSLRLSCAASGIIIRSYAMGWDRQAPGKERELVAAITRSGGSTYADSVKGRFTISRDNAKNTVYLQKNSLKPEDTAVYYCAADRYSGWVYRRDDWGQGTQVPVSS
  polyreactivity (PSR sort gate): low polyreactivity

## QVQLVESGGGLVQAGGSLRLSCAASGIILGRYAMGWYRQAPGKERELVAAITASGGRTYYADSVKWRFTISRDNAKNTVYLQMNSLKPEDTAVYYCNTVYWGYKSHYDYWGQGTQVTVSS
  polyreactivity (PSR sort gate): high polyreactivity

## QVQLVESGGGLVQAGGSLRLSCAASGIILPYYAMGWYRQAPGKERELVASISQSGSSTYYADSVKGRFTISRDNAKNTVYLQMNSLKPEDTAVYYCNAKPGSWYIRYDYWGQGTQVTVSS
  polyreactivity (PSR sort gate): low polyreactivity

## QVQLVESGGGLVQAGGSLRLSCAASGIILWYNVMGWYRQAPGKERELVASITGDGDDTYYADSVKGRFTMSRDNAKNTVYLQMNSLKPEDTAVYYCAKENYGILYSTLYDYWGQGTQVTVSS
  polyreactivity (PSR sort gate): low polyreactivity

## QVQLVESGGGLVQAGGSLRLSCAASGIILYGYARGWYRPAPGKESELVAAISRRGGITYYADTVKARYTISRDNAKNSVYLQMNSLKPEDTAVYYCAADINRRPSYHPDYEYWGQGTQVTVSS
  polyreactivity (PSR sort gate): high polyreactivity

## QVQLVESGGGLVQAGGSLRLSCAASGIILYRNGMGWYRQAPGKERELVAASSWSTGSTYYADSVKGRFTISRDNAKNTVYLQMNSLKPEDTAVYYCATDYVGYSFGMYYWGQGTQVTVSS
  polyreactivity (PSR sort gate): low polyreactivity

## QVQLVESGGGLVQAGGSLRLSCAASGIILYVNAMGCYRQAPGKEREFVAAISWGGGSTYYADSVKGRFTISRDNAKNTVYLQMNSLKREDTAVYYCAAEFWSGYPTYTYDYWGQGTQVTVSS
  polyreactivity (PSR sort gate): low polyreactivity

## QVQLVESGGGLVQAGGSLRLSCAASGIILYYYAMGWYRQAPGKERELVAAINWSGGSTSYADSVKGRFTISRDNAKNTVYLQMNSLKPEDTAVYYCAARLGSWHYQVWNYKYEYWGQGTQVTVSS
  polyreactivity (PSR sort gate): high polyreactivity

## QVQLVESGGGLVQAGGSLRLSCAASGIIQGVYALGWYRQAPGKERELVAAITSSGGSTYYADSVKGRFTISRDNAKNTVYLQMNSLKPEDTAVYYCAADFDTSVRLYGPTRYDYWGQGTQVTVSS
  polyreactivity (PSR sort gate): low polyreactivity

## QVQLVESGGGLVQAGGSLRLSCAASGIIRHNAMGCYRPAPGKERELVAGISRRGGSTYYADSVKGRFTISRDNAKNTVYLQMNSLKPEDTAVYYCNARSAGSDLDYWGQGTQVTVSS
  polyreactivity (PSR sort gate): high polyreactivity

## QVQLVESGGGLVQAGGSLRLSCAASGIISGRNTMGWFRLARGKERELVAAISGSGGSTHYADSVKGRFPSSRDNAKNTVYLQSNSLKPEDTAVYYCAADTAYVYSMDYWGQGTQVTVSS
  polyreactivity (PSR sort gate): high polyreactivity

## QVQLVESGGGLVQAGGSLRLSCAASGIISRSYTMGWYRQAPGKERELVAVISSSGGSTYYADSVKGRFTISRDNAKNTVYLQMNSLKPEDTAVYYCAARPVTRFQGSDYWGQGTQVTVSS
  polyreactivity (PSR sort gate): high polyreactivity

## QVQLVESGGGLVQAGGSLRLSCAASGIISRWYAMGWYRQAPGKERELVAAIRWSGGRTYYADSVKGRFTISRDNAKNTVYLQMNSLKPEDTAVYYCAADVRQRGIYGPGPHYYWGQGTQVTVSS
  polyreactivity (PSR sort gate): low polyreactivity

## QVQLVESGGGLVQAGGSLRLSCAASGIISSVYAMGWSRQAPGKERELVAAISGSGGSTYYADSVKGRFTISRDNAKNTVYLQMNSLKPEDTAVYYCAKGYQYQGNSYGYWGQGTQVTVSS
  polyreactivity (PSR sort gate): low polyreactivity

## QVQLVESGGGLVQAGGSLRLSCAASGIISSVYAMGWYRQAPGKERELVAAISGSGGSTYYADSVKGRFTISRDNAKNTVYLQMNSQKPEDTAVYYCSKGYQYQGNSYGYWGQGTQVTVSS
  polyreactivity (PSR sort gate): low polyreactivity

## QVQLVESGGGLVQAGGSLRLSCAASGIISYPTVMGWYRQAPGKERELVPAITSGGRTKYADSVKGRFTISRDNAKNTVYLQMNSLKPEDTAVYYCAARTVYWQSWSQFWGYNYWGQGTQVTVSS
  polyreactivity (PSR sort gate): low polyreactivity

## QVQLVESGGGLVQAGGSLRLSCAASGIIYGRYAMGWYRQAPGKERELVAAINASGGSTYYADSVKGRFTISRDNAKNTVYLQMNSLKPEDSAVYYCATRSTRSRTSGYYYWGQGTQVTVSS
  polyreactivity (PSR sort gate): high polyreactivity

## QVQLVESGGGLVQAGGSLRLSCAASGIIYITNAMGWYRQAPGKERELVAAISSTVSTNYADSVKGRFTISRDNAKNTVYLQMNSLKPEDTAVYYCAAEWGLTQGESIYDYWGQGTQVTVSS
  polyreactivity (PSR sort gate): low polyreactivity

## QVQLVESGGGLVQAGGSLRLSCAASGIIYSINAMGWYRQAPGKERELVAAISRSGGSTNYADSVKGRFTISRDNAKNTVYLQMNSLKPEDSAVYYCATVHRYSVWSHNYWGQGTQVTVSS
  polyreactivity (PSR sort gate): high polyreactivity

## QVQLVESGGGLVQAGGSLRLSCAASGIIYTYYAMGWYRQAPGKERELVARISSSGGRTYYADSVKGRFTISRDNAKNTVYLQMNSLKPEDTAVYYCAAAIVSYGRNDYWGQGTQVTVSS
  polyreactivity (PSR sort gate): high polyreactivity

## QVQLVESGGGLVQAGGSLRLSCAASGINFAAYVMGWYRQAPGKERELFAAISKSGGRTYYADSVKGRFTISRDNAKNTVYLQMNSLKPEDTAVYYCAASYTYFSFGIGTDVRYGYWGQGTQVTVSS
  polyreactivity (PSR sort gate): high polyreactivity

## QVQLVESGGGLVQAGGSLRLSCAASGINFGYNVMGWYRQAPGKERELVAAISGSGSSTYYADSVKGRFTISRDNAKNTVYLQMNSLKPEDTAVYYCARQRYEYRTTYYYWGQGTQVTVSS
  polyreactivity (PSR sort gate): high polyreactivity

## QVQLVESGGGLVQAGGSLRLSCAASGINFNRYAMGWYRQAPGNERELVAAITSSGGSTHYADSVKGRFTISRDNAKNTVYLQMNSLKPEDTAVYYCAKQFPNNYRYYLHYYYWGQGTQVTVSS
  polyreactivity (PSR sort gate): low polyreactivity

## QVQLVESGGGLVQAGGSLRLSCAASGINFNYYAMGWYRQAPGKERELVAAISSTGSTYYSDSVKGRFTISRDNAKNTVYLQMNSLKPEDTAVYYCAAEWWDTGFANYGYDYWGQGTQVTVSS
  polyreactivity (PSR sort gate): high polyreactivity

## QVQLVESGGGLVQAGGSLRLSCAASGINFSEYAMGWSRQAPGKERELVAVITSGGSTYYADSVKGRFTISRDNAKNTVYLQMNSLKPEDTAVYYCAARTAYASRYVNVPYYYWGQGTQVTVSS
  polyreactivity (PSR sort gate): high polyreactivity
